# According to patent publication US20220372138A1 (IOMX THERAPEUTICS, published 2022):
# T1: extracellular domain (ECD) of human IGSF11 (VSIG3), recombinant (human, UniProt Q5DX21 23-241)
# T1 construct: biotinylated where captured on streptavidin; tags of the reagent not always stated; also called IGSF11 (ECD domain); ECD-IGSF11
# T1 sequence: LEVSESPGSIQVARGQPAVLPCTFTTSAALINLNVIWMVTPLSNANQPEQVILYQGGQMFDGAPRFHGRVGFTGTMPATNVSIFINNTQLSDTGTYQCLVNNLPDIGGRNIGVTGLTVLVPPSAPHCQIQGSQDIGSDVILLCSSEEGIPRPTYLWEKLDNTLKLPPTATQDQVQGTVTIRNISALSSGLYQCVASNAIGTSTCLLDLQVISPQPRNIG
# T2: ECD of murine IGSF11, recombinant biotinylated (mouse, UniProt P0C673 23-240)
# T2 construct: whole entry named; also called Mouse IGSF11
# T2 sequence: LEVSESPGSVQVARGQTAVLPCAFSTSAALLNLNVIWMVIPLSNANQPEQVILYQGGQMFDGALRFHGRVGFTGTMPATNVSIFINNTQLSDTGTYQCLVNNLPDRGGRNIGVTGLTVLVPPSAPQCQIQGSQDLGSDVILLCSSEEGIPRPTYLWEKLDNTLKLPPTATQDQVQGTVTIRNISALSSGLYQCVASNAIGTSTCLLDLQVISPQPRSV
# T3: human IGSF11 (VSIG3) ECD, His-tagged (human, UniProt Q5DX21 23-241)
# T3 construct: in part bought (SinoBiological 13094-H08H); also called HIS-IGSF11; IGSF11-HIS; not shown: His tag
# T3 sequence: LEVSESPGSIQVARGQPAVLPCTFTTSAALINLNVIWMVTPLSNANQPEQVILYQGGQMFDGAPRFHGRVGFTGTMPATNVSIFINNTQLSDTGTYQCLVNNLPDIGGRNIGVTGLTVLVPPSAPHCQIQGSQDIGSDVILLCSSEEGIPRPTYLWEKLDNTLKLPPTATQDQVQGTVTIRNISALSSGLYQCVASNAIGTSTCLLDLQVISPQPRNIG
# T4: murine IGSF11 expressed on cells (mouse, UniProt P0C673 23-428)
# T4 construct: MC38-IGSF11, CT26-IGSF11, MC38-wt (naturally expresses murine IGSF11)
# T4 sequence: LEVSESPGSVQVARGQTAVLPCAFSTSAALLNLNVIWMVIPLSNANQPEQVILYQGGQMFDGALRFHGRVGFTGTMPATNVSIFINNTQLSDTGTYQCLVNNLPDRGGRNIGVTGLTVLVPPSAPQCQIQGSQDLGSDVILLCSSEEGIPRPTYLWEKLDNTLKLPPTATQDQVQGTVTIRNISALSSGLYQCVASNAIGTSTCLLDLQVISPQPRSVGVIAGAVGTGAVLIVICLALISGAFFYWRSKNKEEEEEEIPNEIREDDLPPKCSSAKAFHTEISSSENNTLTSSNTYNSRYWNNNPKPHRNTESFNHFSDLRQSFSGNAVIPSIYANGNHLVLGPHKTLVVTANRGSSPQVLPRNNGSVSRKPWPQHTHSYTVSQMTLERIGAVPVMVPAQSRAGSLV
# T5: human IGSF11 (VSIG3) expressed on cells (human, UniProt Q5DX21 23-431)
# T5 sequence: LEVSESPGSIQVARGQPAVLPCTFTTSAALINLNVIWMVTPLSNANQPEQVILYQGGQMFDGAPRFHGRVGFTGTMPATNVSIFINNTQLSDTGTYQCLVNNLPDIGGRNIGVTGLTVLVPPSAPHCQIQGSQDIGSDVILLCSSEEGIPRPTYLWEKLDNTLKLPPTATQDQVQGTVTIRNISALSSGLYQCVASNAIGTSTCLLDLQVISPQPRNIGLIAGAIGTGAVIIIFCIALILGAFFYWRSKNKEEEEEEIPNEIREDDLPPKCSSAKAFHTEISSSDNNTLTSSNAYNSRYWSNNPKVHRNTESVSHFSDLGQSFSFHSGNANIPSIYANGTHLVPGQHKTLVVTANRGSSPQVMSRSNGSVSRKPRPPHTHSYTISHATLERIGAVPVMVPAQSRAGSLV
# T6: full-length ECD of human IGSF11 fused to murine Fc (human, UniProt Q5DX21 23-241)
# T6 construct: also called Fc-fusion IGSF11 ECD; not shown: murine Fc
# T6 sequence: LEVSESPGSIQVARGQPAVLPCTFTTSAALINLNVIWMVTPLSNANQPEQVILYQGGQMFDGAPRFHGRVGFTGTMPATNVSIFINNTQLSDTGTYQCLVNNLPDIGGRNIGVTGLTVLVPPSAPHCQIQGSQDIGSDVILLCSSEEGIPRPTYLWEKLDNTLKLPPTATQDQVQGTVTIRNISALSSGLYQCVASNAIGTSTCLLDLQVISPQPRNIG
# T7: IgC2 domain of human IGSF11 fused to murine IgG2a Fc (human, UniProt Q5DX21 137-241)
# T7 construct: not shown: murine IgG2a Fc-region
# T7 sequence: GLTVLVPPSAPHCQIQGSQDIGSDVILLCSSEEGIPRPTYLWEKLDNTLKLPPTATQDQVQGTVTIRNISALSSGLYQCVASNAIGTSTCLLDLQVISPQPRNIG
# Assays:
# [1] = target: T1, extracellular domain (ECD) of human …; test: ELISA RFU>1.0
# [2] = target: T2, ECD of murine IGSF11, recombinant …; test: ELISA RFU>1.0
# [3] = target: T3, human IGSF11 (VSIG3) ECD, His-tagged; test: IgG1 ELISA EC50 0.05-1 nM
# [4] = target: T4, murine IGSF11 expressed on cells; test: IgG FACS MC38-IGSF11
# Text: (§1) Unbound antibodies were removed by washing the cells three time with FACS buffer. Bound antibodies were detected with a mouse anti-human IgG antibody conjugated with AlexaFluor647.
# [5] = target: T4, murine IGSF11 expressed on cells; test: IgG FACS CT26-IGSF11
# Text: as §1
# [6] = target: T5, human IGSF11 (VSIG3) expressed on cells; test: FACS, DMS 273 cells with IGSF11 siRNA (KD, knock-down control)
# [7] = target: T5, human IGSF11 (VSIG3) expressed on cells; test: FACS, M579-A2-luc cells with scrambled control siRNA (SC)
# [8] = target: T5, human IGSF11 (VSIG3) expressed on cells; test: FACS, M579-A2-luc cells with IGSF11 siRNA (KD, knock-down control)
# [9] = target: T5, human IGSF11 (VSIG3) expressed on cells; test: IgG1 FACS HEK-OE
# [10] = target: T6, full-length ECD of human IGSF11 fused …; test: IgG ELISA
# Experimental: (§2) Binding of IgG antibodies to each of the full-length ECD of IGSF11, to the IgV domain of IGSF11 and to the IgC2 domain of IGSF11, was tested in the ELISA assay as follows: briefly, recombinant domains of Fc-fusion IGSF11 proteins were coated at 2 ug/mL on a 384-well Maxisorp plate. The surface was blocked with 2% (w/v) skim milk powder in PBST. […] After removing all unbound antibodies by 3 wash cycles with PBST, bound IgG ABPs were detected with a goat anti-human IgG antibody conjugated with horseradish peroxidase. After three wash cycles with PBST the ELISA was developed with TMB substrate.
# [11] = target: T7, IgC2 domain of human IGSF11 fused to …; test: IgG ELISA
# Experimental: as §2
# [12] = target: T5, human IGSF11 (VSIG3) expressed on cells; test: FACS, DMS 273 cells with scrambled control siRNA (SC)
# [13] = target: T1, extracellular domain (ECD) of human …; test: SPR
# [14] = target: T3, human IGSF11 (VSIG3) ECD, His-tagged; test: IgG1 ELISA EC50 0.02-0.05 nM
binder,measurement,setting,value
"A-026 (scFv format) (scFv, V domains shown, scFv) VH: QVQLQESGPGLVKPSQTLSLTCTVSGGSISSGGYYWSWIRQHPGKGLEWIGYIYYSGSTYYNPSLKSRVTISVDTSKNQFSLKLSSVTAADTAVYYCASWSLGTSNHGWFDPWGQGTLVTVSS VL: QSVLTQPPSASGTPGQRVTISCSGSSSNIGSNTVNWYQQLPGTAPKLLISDNNNRPSGVPDRFSGSKSGTSASLAITGLQAEDEADYYCQSYDSNLSGWVFGGGTKLTVL",ELISA binding signal (RFU),[1],> 1 rfu
same,ELISA binding signal (RFU),[2],> 1 rfu
"A-023 (IgG1 format) (antibody, V domains shown, human IgG1 format) VH: QVQLVQSGAEVKKPGSSVKVSCKASGGTFSSYAISWVRQAPGQGLEWMGGIIPIFGTANYAQKFQGRVTITADESTSTAYMELSSLRSEDTAVYYCARPKYSSGWFYYYGMDVWGQGTTVTVSS VL: QSVLTQPPSVSAAPGQKVTISCSGSSSNIGNNYVSWYQQLPGTAPKLLIYDNNKRPSGIPDRFSGSKSGTSATLGITGLQTGDEADYYCGTWDSSLSVVFGGGTKLTVL",EC50,[3],0.05 to 1 nM
"C-016 (IgG1 format) (antibody, V domains shown) VH: not shown VL: ASVLTQPPSVSAAPGQKVTISCSGSSSNIGNNYVSWYQQLPGTAPKLLIYDNNKRPSGIPDRFSGSKSGTSATLGITGLQAEDEADYYCHLYTEAESHWVFGGGTKLTVL",EC50,[4],50 to 100 nM
same,EC50,[5],20 to 50 nM
"A-027 (IgG1 format) (antibody, V domains shown, human IgG1 format) VH: QVQLVQSGAEVKKPGSSVKVSCKASGGTFSSYAISWVRQAPGQGLEWMGGIIPIFGTANYAQKFQGRVTITADKSTSTAYMELSSLRSEDTAVYYCARARGSTWGYFDYWGQGTLVTVSS VL: EIVLTQSPASLSLSPGERVTLSCRASQSVSNYLAWYQQKPGQAPRLLIYDASNRATGIPARFSGSGSGTDFTLTISSLEPEDFAVYYCQQRDNWPLTFGGGTKVEIK",% binding (FACS heat-map),[6],2.63%
same,% binding (FACS heat-map),[7],3.32%
same,% binding (FACS heat-map),[8],2.5%
same,EC50,[9],> 50 nM
same,EC50,[10],1 to 20 nM
same,EC50,[11],1 to 20 nM
same,% binding (FACS heat-map),[12],14.3%
"A-009 (IgG1 format) (antibody, V domains shown, human IgG1 format) VH: QVQLVQSGAEVKKPGSSVKVSCKASGGTFSSYAISWVRQAPGQGLEWMGGIIPIFGTANYAQKFQGRVTITADESTSTAYMELSSLRSEDTAVYYCARGRGFGELYFDYWGQGTLVTVSS VL: ETTLTQSPATLSVSPGERATLSCRASQGVRSNIAWYQQKPGQAPRLLIYDSSTRATGIPARFSGSGSGTEFTLTISSLQSEDFAVYSCQQYKNWPRTFGQGTKVEIK",EC50,[3],0.05 to 1 nM
"A-003 (IgG1 format) (antibody, V domains shown, human IgG1 format) VH: VQLVQSGAEVKKPGSSVKVSCKASGGTFSSYAISWVRQAPGQGLEWMGGIIPIFGTANYAQKFQGRVTITADESTSTAYMELSSLRSEDTAVYYCASPRIQLWAAGGFDYWGQGTLVTVSS VL: QSALTQPASVSGSPGQSITISCTGTSSDVGGYNLVSWYQQHPGKAPKLMIYDVSNRPSGVSNRFSGSKSGNTASLTISGLQAEDEADYYCSSFTTSTTLVFGGGTKLTVL",EC50,[3],0.05 to 1 nM
"A-034 (IgG1 format) (antibody, V domains shown, human IgG1 format) VH: QMQLVQSGGGLVKPGGSLRLSCAASGFTFSSYTMNWVRQAPGKGLEWVSSISSIGTYIYYADSVKGRFTISRDNAKNSLYLQMNSLRAEDTAVYYCARVLLSGSYYGYFDSWGQGTLVTVSS VL: QSVLTQPPSVSGAPGQRVTISCTGSSSNIGAGYDVHWYQQLPGTAPKLFIYGNSNRPSGVPDRFSGSKSGTSASLAITGLQAEDEADYYCQSYDSSLSGYVFGTGTKVTVL",EC50,[3],0.05 to 1 nM
same,Kd,[13],250 to 500 nM
"A-025 (IgG1 format) (antibody, V domains shown, human IgG1 format) VH: QVQLVQSGAEVKKPGSSVKVSCKASGGTFSSYAISWVRQAPGQGLEWMGGIIPIFGTANYAQKFQGRVTITADESTSTAYMELTSLRSEDTAVYYCARGGWLRQNWFDPWGQGTLVTVSS VL: SSELTQDPAVSVALGQTVRITCQGDSLRSYYASWYQQKPGQAPVLVIYGKNNRPSGIPDRFSGSSSGNTASLTITGAQAEDEADYYCNSRDSSGNHPRVFGGGTKLTVL",EC50,[3],0.05 to 1 nM
"A-029 (IgG1 format) (antibody, V domains shown, human IgG1 format) VH: QVQLVQSGAEVKKPGSSVKVSCKASGGTFSSYAISWVRQAPGQGLEWMGGIIPIFGTANYAQKFQGRVTITADESTGTAYMELSSLRSEDTAVYYCARSYYYYYGMDVWGQGTTVTVSS VL: not shown",EC50,[3],0.05 to 1 nM
"A-008 (IgG1 format) (antibody, V domains shown, human IgG1 format) VH: QLQLQESGPGLVKPSETLSLTCTVSGGSISSSGYYWGWIRQPPGKGLEWIGSIYYSGSTYYNPSLKSRVTISVDTSKNQFSLKLSSVTAADTAVYYCARHRVRFGEFDAFDIWGQGTMVTVSS VL: QAVLTQPPSVSGAPGERVTLSCTGTSSNVGADFDVHWYQQFPGTAPRLLIFGSDNRPSGVPDRFSGSKSGTSASLAITGLQVEDEADYYCQAYDVRLSGWVFGGGTKLTVL",EC50,[14],0.02 to 0.05 nM
"A-008 (scFv format) (scFv, V domains shown, scFv) VH: QLQLQESGPGLVKPSETLSLTCTVSGGSISSSGYYWGWIRQPPGKGLEWIGSIYYSGSTYYNPSLKSRVTISVDTSKNQFSLKLSSVTAADTAVYYCARHRVRFGEFDAFDIWGQGTMVTVSS VL: QAVLTQPPSVSGAPGERVTLSCTGTSSNVGADFDVHWYQQFPGTAPRLLIFGSDNRPSGVPDRFSGSKSGTSASLAITGLQVEDEADYYCQAYDVRLSGWVFGGGTKLTVL",ELISA binding signal (RFU),[1],> 1 rfu
same,ELISA binding signal (RFU),[2],> 1 rfu
"A-033 (IgG1 format) (antibody, V domains shown, human IgG1 format) VH: QVQLVQSGAEVKKPGASVKVSCKASGYTFTSYGISWVRQAPGQGLEWMGWISAYNGNTNYAQKLQGRVTMTTDTSTSTAYMELRSLRSDDTAVYYCARDHSIVGATTFDYWGQGTLVTVSS VL: not shown",EC50,[14],0.02 to 0.05 nM
